For test [1], the target named is F-actin (skeletal α-actin, polymerized) (rabbit, UniProt P68135 1-377). The experiment in a line: co-sedimentation; increasing concentrations of cortactin constructs with constant F-actin (4 uM), ATP-supplemented KMEI buffer, 1 h at RT, 30 min at 278,800 g, SDS-PAGE densitometry. The conditions noted are these: both partners purified.
The target in test [2] is Arp3 (subunit of bovine Arp2/3 complex) (bovine, UniProt P61157 1-418). The experiment in a line: cryo-EM structure; Bovine Arp2/3 complex (9.0 uM) mixed with Cort_(1-76) (45 uM) in ATP-supplemented KMEI buffer (10 mM imidazole pH 7.0, 50 mM KCl, 2 mM MgCl2, 1 mM EGTA, 0.2 mM ATP), 0.0025% NP-40. The conditions noted are these: both partners purified.

B1: Cort_(1-401) (domain or fragment)
chain: MWKASAGHAVSITQDDGGADDWETDPDFVNDVSEKEQRWGAKTVQGSGHQEHINIHKLRENVFQEHQTLKEKELETGPKASHGYGGKFGVEQDRMDRSAVGHEYQSKLSKHCSQVDSVRGFGGKFGVQMDRVDQSAVGFEYQGKTEKHASQKDYSSGFGGKYGVQADRVDKSAVGFDYQGKTEKHESQKDYSKGFGGKYGIDKDKVDKSAVGFEYQGKTEKHESQKDYVKGFGGKFGVQTDRQDKCALGWDHQEKLQLHESQKDYKTGFGGKFGVQSERQDSSAVGFDYKERLAKHESQQDYAKGFGGKYGVQKDRMDKNASTFEEVVQVPSAYQKTVPIEAVTSKTSNIRANFENLAKEREQEDRRKAEAERAQRMAKERQEQEEARRKLEEQARAKKQT
notes: mouse cortactin, UniProt Q60598, residues 1-401; source: E. coli ArticExpress (DE3), purified (amylose, TEV cleavage, Ni-NTA, size exclusion)
Regarding B1, the binding result in test [1] is listed as “binds”.

B2: Cort_(1-79/154-401) (domain or fragment)
chain: MWKASAGHAVSITQDDGGADDWETDPDFVNDVSEKEQRWGAKTVQGSGHQEHINIHKLRENVFQEHQTLKEKELETGPKYSSGFGGKYGVQADRVDKSAVGFDYQGKTEKHESQKDYSKGFGGKYGIDKDKVDKSAVGFEYQGKTEKHESQKDYVKGFGGKFGVQTDRQDKCALGWDHQEKLQLHESQKDYKTGFGGKFGVQSERQDSSAVGFDYKERLAKHESQQDYAKGFGGKYGVQKDRMDKNASTFEEVVQVPSAYQKTVPIEAVTSKTSNIRANFENLAKEREQEDRRKAEAERAQRMAKERQEQEEARRKLEEQARAKKQT
notes: mouse cortactin, UniProt Q60598, residues 1-79, joined directly to residues 154-401; mouse cortactin, UniProt Q60598, residues 154-401; Internal deletion of residues 80-153; fragments ligated through overhangs coding residues 77-79; source: E. coli ArticExpress (DE3), purified (amylose, TEV cleavage, Ni-NTA, size exclusion)
With B2, the binding result in test [1] is “binds”.

B3: Cort_(1-76), cortactin N-terminal acidic domain (NTA, residues 1-76) (domain or fragment)
chain: MWKASAGHAVSITQDDGGADDWETDPDFVNDVSEKEQRWGAKTVQGSGHQEHINIHKLRENVFQEHQTLKEKELET
notes: mouse cortactin, UniProt Q60598, residues 1-76; the methods say mouse cDNA; Cloned between BamHI and EcoRI of pMAL-c6T; also called cortactin's N-terminal domain; source: E. coli ArticExpress (DE3), purified (amylose, TEV cleavage, Ni-NTA, size exclusion)
Take B3: the binding result in test [2] is on record as “binds”.

B4: Cort_(1-227) (domain or fragment)
chain: MWKASAGHAVSITQDDGGADDWETDPDFVNDVSEKEQRWGAKTVQGSGHQEHINIHKLRENVFQEHQTLKEKELETGPKASHGYGGKFGVEQDRMDRSAVGHEYQSKLSKHCSQVDSVRGFGGKFGVQMDRVDQSAVGFEYQGKTEKHASQKDYSSGFGGKYGVQADRVDKSAVGFDYQGKTEKHESQKDYSKGFGGKYGIDKDKVDKSAVGFEYQGKTEKHESQKD
notes: source: E. coli ArticExpress (DE3), purified (amylose, TEV cleavage, Ni-NTA, size exclusion)
With B4, in test [1], the binding result is reported as “binds”.

For the origin of these results see publication PMC10613254, “Mechanism of synergistic activation of Arp2/3 complex by cortactin and WASP-family proteins” (Nature Communications, 2023).
